Here are results for 5 molecules from PMC6294567, “The C-terminal D/E-rich domain of MBD3 is a putative Z-DNA mimic that competes for Zα DNA-binding activity” (Nucleic Acids Research, 2018).

Series [1] relates to replication protein A (RPA). The following applies: cited from earlier work. An excerpt: This is the first report to identify a particular protein sequence with D/E repeats capable of competition with Z-DNA for binding to Zα, while the potential of acidic residues for DNA mimicry, referring to B-DNA or ssDNA, have been observed previously.
Series [2] has as its target MBD3 MBD domain (MBD3MBD) (Homo sapiens, UniProt O95983 1-72). Description: fluorescence polarization; high affinity similar to Zα; Kd value not in material; FP: 20 mM HEPES-NaOH pH 7.5, 50 mM NaCl, 1 mM DTT, 30 ul; temperature not stated; CD buffer not in material. The following applies: protein: recombinant; tags: His6 removed by TEV; unlabelled version also purchased; blunt; self-complementary duplex, annealed from 85°C.

The target in series [3] is T1, Sso7d (UniProt P39476 2-64).
T1 sequence: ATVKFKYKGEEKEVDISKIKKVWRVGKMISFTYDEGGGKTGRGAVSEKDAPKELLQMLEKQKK
Description: fluorescence polarization; FP: 20 mM HEPES-NaOH pH 7.5, 50 mM NaCl, 1 mM DTT, 30 ul; temperature not stated; CD buffer not in material. The following applies: unlabelled version also purchased; blunt; self-complementary duplex, annealed from 85°C. On the technique in general: In fluorescence polarisation assays a small probe gives low polarisation when free and higher when bound to something large.

In series [4] the target is T2, Zα (Z-DNA binding domain of ADAR1) (Homo sapiens, UniProt P55265 133-209).
T2 sequence: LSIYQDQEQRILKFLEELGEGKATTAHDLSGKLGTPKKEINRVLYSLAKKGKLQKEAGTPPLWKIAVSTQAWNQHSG
The series is described as above. The settings on record: protein: recombinant; tags: His10 (pET16b) or tag-free after TEV (pMCSG7); chain copies: 2; unlabelled version also purchased; blunt; self-complementary duplex, annealed from 85°C.

In series [5] the target is D/E-rich peptide of MBD3, unlabelled (full-length D/E-rich peptide) (human). Description: SEC-MALS; Zα and D/E-rich peptide, equimolar (1, 16, 29 h) or 4:1 (1 h on ice); ENrich SEC 70 column; 20 mM HEPES-NaOH pH 7.5, 50 mM NaCl, 1 mM TCEP, 0.02% NaN3. (In general: Size exclusion chromatography separates by hydrodynamic size, large species first.)
In series [6] the target is T3, Zα (Homo sapiens, UniProt P55265).
T3 construct: Zα of human ADAR1; residues 133–209; His6 (pMCSG7, followed by a TEV site) (N, cleaved yes); made in house; host or cells: E. coli BL21(DE3)
T3 sequence (P55265 133-209): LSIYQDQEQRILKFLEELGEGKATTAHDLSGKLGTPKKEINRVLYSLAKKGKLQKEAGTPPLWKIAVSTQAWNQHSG
Description: SEC-MALS of Zα and Zα-D/E-rich peptide complexes. The class given is binding. The following applies: Zα 2.7 mg/ml, expected ~8.8. As to the method:
SEC−MALS measurements were conducted using a miniDAWN TREOS detector and an Optilab T-rEX differential refractive index detector (Wyatt Technology Corporation) coupled to an Agilent 1260 Infinity HPLC system. The SEC experiments were performed on an ENrich SEC 70 10 × 300 column (Bio-Rad) equilibrated in a buffer containing 20 mM HEPES–NaOH pH 7.5, 50 mM NaCl, 1 mM TCEP and 0.02% NaN3. The protein Zα alone (2.7 mg/ml) or the mixture of Zα and the D/E-rich peptide at various molar ratios and incubation periods as indicated was loaded onto the column at a flow rate of 0.5 ml/min. Bovine serum albumin (A1900; Sigma) was used for system calibration and molecular weights were calculated using ASTRA 6 software (Wyatt Technology Corporation) with a dn/dc value of 0.185 ml/g.
Figure 3. Analysis of complex formation of Zα and the D/E-rich domain. […] The left y axis represents the normalized UV absorbance at 280 nm, while the right y axis represents the molecular weight (Da). The horizontal traces show the calculated molecular weight. […] TEXT PRINTED IN THE PICTURE: (C) Zα: Measured MW (kDa): 9.8 ± 0.1; Expected MW (kDa): ~8.8 | (C) 1Zα: 1DE: Measured MW (kDa): 12.7 ± 0.1; Expected MW (kDa): ~11.6 | (C) 2Zα: 1DE: Measured MW (kDa): 20.8 ± 0.3; Expected MW (kDa): ~20.5

Series [7] deals with d(CG)6 duplex. Description: Circular dichroism of d(CG)6 DNA conformation. How it is done: CD spectra were measured at 24°C on a J-815 Spectrometer (JASCO) using a 1 mm path length quartz cell. Prepare 7.5 μM DNA duplex in a buffer consisting of 5 mM HEPES–NaOH pH 7.5, 25 mM NaCl and 1 mM DTT, and in the absence or presence of indicated concentration of proteins. Spectra were recorded between 235 and 305 nm wavelength with a data pitch of 1 nm, bandwidth of 1 nm and with two accumulations at a scanning speed of 10 nm/min.
Figure 6. Zα can compete with the MBD domain for binding to d(CG)6, but not vice versa. (A) CD spectra of the d(CG)6 duplex in the presence of Zα. CD spectra of (B) the d(CG)6 and (C) the d(C^mG)6 duplex, respectively, in the presence of the MBD domain. (D) Monitoring of the change in CD spectra with the addition of increased amounts of Zα to the pre-incubated mixture of the MBD domain and d(CG)6. (E) Monitoring of the change in CD spectra with the addition of increased amount of the MBD domain to the pre-incubated mixture of Zα and d(CG)6. Spectra are expressed in absolute values of ellipticity in millidegrees (mdeg).

Series [8] has as its system His10-Zα. Description: His10-Zα pull-down from HEK293 lysate with LC-MS/MS. The series is classed as binding, human. The following applies: HEK293 cell lysate, Ni beads. As to the method:
HEK293 cells were collected and the pellet was resuspended in the lysis buffer [(50 mM Tris–HCl pH7.5, 1% NP-40, 150 mM NaCl, 10 mM imidazole, 0.1 mM PMSF, 90 U/ml Benzonaes (Novagen) and EDTA-free protease inhibitor cocktail tablet (Roche)]. Lysate was clarified by centrifugation for 30 min at 16 000 × g at 4°C. The protein concentration was measured by using Bradford assay. 20 mg of HEK293 cell lysate was pre-cleaned by adding 1 ml of Ni sepharose (50% slurry) (GE Healthcare) and rotated at 4°C for 1 h. Add 1 mg of purified His10-Zα protein (buffer only as a negative control) to the pre-cleaned lysate and rotate at 4°C overnight. To capture His10-Zα protein, add 0.2 ml Ni sepharose (50% slurry) and incubate at 4°C for 1 h in a rotation wheel. […] Add trichloroacetic acid to precipitate and concentrate the eluates. The concentrated eluates were resuspended in NuPAGE LDS sample buffer (Invitrogen), run on NuPAGE 12% Bis–Tris gels (Invotrogen) and stained using Instant Blue (Expedeon). […]
To identify Zα-interacting proteins, the entire gel lanes were divided into several horizontal slices and subjected to in-gel trypsin digestion. The digested samples were analyzed by LC–MS/MS using LTQ-Orbitrap XL mass spectrometer (Thermo Fisher Scientific, Bremen, Germany). […]

A short description of series [9]: Stability of E. coli-expressed protein. The following applies: recombinant E. coli-expressed protein. The class given is physicochemical.
In series [10] the target is T3, Zα. Description: SEC / SDS-PAGE complex formation with Zα. The class given is binding. The following applies: Zα 100 μM : protein 25 μM (4:1), ice 1 h, 20 mM Tris–HCl pH 7.5, 50 mM NaCl, 1 mM TCEP. As to the method: Equimolar amounts (0.1 mM) of Zα and DE-rich peptide were incubated on ice for 1 h in a buffer containing 20 mM HEPES–NaOH pH 7.5, 50 mM NaCl, 1 mM DTT. The mixture was then loaded on a Superdex 30 16/600 column (GE Healthcare) equilibrated in the same buffer. The fractions from the peaks corresponding to Zα alone and the complex of Zα and DE-rich peptide were collected and used for chemical cross-linking.
To analyze complex formation of Zα and other proteins (MBD3, MBD or MBDDE), the mixtures were incubated on ice for 1 h in a buffer containing 20 mM Tris–HCl pH 7.5, 50 mM NaCl, 1 mM TCEP. The mixture was then loaded on a Superdex 75 or Superdex 200 increase 10/300 column (GE Healthcare).

The target in series [11] is T4, MBD domain of MBD3 (residues 1–72), tag-free (human, UniProt O95983-1 1-72).
T4 chain: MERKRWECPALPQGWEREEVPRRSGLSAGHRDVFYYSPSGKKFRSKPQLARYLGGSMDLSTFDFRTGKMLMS
Description: FP.

The target of series [12] is T5, Zα, tag-free (Z-DNA binding domain of human ADAR1, residues 133-209) (human, UniProt P55265 133-209).
T5 construct: Zα domain of human ADAR1, residues 133-209; from pMCSG7-Zα; source: E. coli BL21(DE3), purified (Ni-NTA, TEV cleavage, reverse Ni-NTA, gel filtration); not shown: His6, N-terminal, cleaved
T5 sequence (looked up): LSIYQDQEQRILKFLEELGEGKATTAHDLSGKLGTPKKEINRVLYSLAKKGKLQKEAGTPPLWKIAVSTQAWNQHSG
Description: fluorescence polarisation; FITC-labelled D/E-rich peptide against titrated protein; 20 mM HEPES-NaOH pH 7.5, 50 mM NaCl, 1 mM DTT; one-site total binding model. The following applies: both partners purified.

For series [13], the target named is T6, Sso7d (UniProt P39476 1-64).
T6 sequence (looked up): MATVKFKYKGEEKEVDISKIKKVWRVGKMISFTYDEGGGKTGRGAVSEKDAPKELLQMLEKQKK
Described as above. The following applies: both partners purified.

Where “and” joins values, the source holds several entries; their conditions need not be identical. Equal entries are not always repeated. Primed or numbered codes have the meaning given here. Where no end group is shown, it is not given here. FITC′ = fluorescein isothiocyanate label

In the case of “EDWAGLDEDED [DSS1, protein whose D/E-rich segment (EDWAGLDEDED) acts as a DNA mimic]”, the “attenuation of the affinity of RPA for ssDNA” value in series [1] is “acts as a DNA mimic to attenuate the affinity of replication protein A (RPA) for ssDNA”.

B1: d(CG)6 (dsDNA)
DNA 1: CGCGCGCGCGCG
DNA 2: CGCGCGCGCGCG
Take B1: the binding result in series [2] was “binds”. The Kd in series [3] worked out at 262 ± 23 nM; in series [4] it was 40.3 ± 3.2 nM.

B2: Zα, tag-free (Z-DNA binding domain of human ADAR1, residues 133-209), P55265 133-209 (domain or fragment)
chain: LSIYQDQEQRILKFLEELGEGKATTAHDLSGKLGTPKKEINRVLYSLAKKGKLQKEAGTPPLWKIAVSTQAWNQHSG
As for B2, the stoichiometry N (Zα per D/E-rich peptide) in series [5] is 2 and 1. Besides, the “measured MW, Zα alone” value in series [6] is recorded as 9.8 ± 0.1 kDa. In addition, in series [7] (CD 235-305 nm, 24°C, 7.5 μM DNA duplex, 5 mM HEPES–NaOH pH 7.5, 25 mM NaCl, 1 mM DTT), the “DNA conformation after binding” value is reported as “induced the Z-DNA formation”. In addition, in series [7] (CD, increasing Zα), the “competition for binding to d(CG)6 (Zα added to pre-incubated MBD domain and d(CG)6)” value was “able to compete with the MBD domain for binding to d(CG)6”.

B3: MBD3: full-length human MBD3; residue 1–291 (protein)
chain: MERKRWECPALPQGWEREEVPRRSGLSAGHRDVFYYSPSGKKFRSKPQLARYLGGSMDLSTFDFRTGKMLMSKMNKSRQRVRYDSSNQVKGKPDLNTALPVRQTASIFKQPVTKITNHPSNKVKSDPQKAVDQPRQLFWEKKLSGLNAFDIAEELVKTMDLPKGLQGVGPGCTDETLLSAIASALHTSTMPITGQLSAAVEKNPGVWLNTTQPLCKAFMVTDEDIRKQEELVQQVRKRLEEALMADMLAHVEELARDGEAPLDKACAEDDDEEDEEEEEEEPDPDPEMEHV
As for B3, in series [8], the “pull-down by Zα” value is “could be pulled down by Zα”. Moreover, in [9], the “protein stability (in words)” value was “unstable with a large amount of aggregation and degradation”. For the same molecule, in series [10], the “complex formation with Zα on SEC” value is “almost no detectable stable complex formation of Zα and MBD3”.

Take {FITC′}-DKACAEDDDEEDEEEEEEEPDPDP [D/E-rich peptide of MBD3, FITC-labelled]: the results for the Kd in series [11], in series [12] and in series [13] were 21.2 nM, 29.1 ± 1.7 nM and 1100 ± 200 nM, respectively.

For orientation: Kd means a measure of binding affinity in units of concentration.
